Earlier results in PMC9731471.
pKd: −log10 of the molar value.

Target: podoplanin (Homo sapiens) (UniProt Q86YL7)

For CLEC-2 (from UniProt Q9P126), the pKd is listed as 4.62.
